Measurements from publication PMC11237949, “Structure and dynamics of the staphylococcal pyridoxal 5-phosphate synthase complex reveal transient interactions at the enzyme interface” (The Journal of Biological Chemistry, 2024).
Numbering of substitutions follows the chain as printed. Numbers in names are those of the source.

T1: SaPLP synthase (SaPdx1 + SaPdx2) (Staphylococcus aureus, UniProt Q2G0Q1)
T1 construct: gene pdxS; wild-type complex of separately expressed subunits, E. coli Rosetta (DE3), N-terminal His tags TEV-cleaved; up to 24-mer, substoichiometric in Pdx2 at rest, 12:12 in catalysis; with Pyridoxal 5'-phosphate synthase subunit PdxT
T1 sequence (Q2G0Q1 1-295): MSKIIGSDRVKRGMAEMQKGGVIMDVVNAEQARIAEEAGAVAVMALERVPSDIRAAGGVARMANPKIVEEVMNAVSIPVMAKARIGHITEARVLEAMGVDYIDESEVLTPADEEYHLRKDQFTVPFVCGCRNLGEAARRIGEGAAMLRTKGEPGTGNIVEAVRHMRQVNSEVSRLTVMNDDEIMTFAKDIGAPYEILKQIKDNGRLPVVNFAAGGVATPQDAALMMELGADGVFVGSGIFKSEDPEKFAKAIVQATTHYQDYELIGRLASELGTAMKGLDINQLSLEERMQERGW
T1 sequence (Q2G0Q0 1-186 partner): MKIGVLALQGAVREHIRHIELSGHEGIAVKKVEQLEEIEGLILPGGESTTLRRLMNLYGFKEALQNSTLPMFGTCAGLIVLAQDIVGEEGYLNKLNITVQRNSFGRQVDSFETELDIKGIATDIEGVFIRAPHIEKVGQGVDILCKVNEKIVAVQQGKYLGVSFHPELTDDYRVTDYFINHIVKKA

T2: SaPdx1 (Staphylococcus aureus, UniProt Q2G0Q1)
T2 construct: gene pdxS; synthetic gene, E. coli Rosetta (DE3), N-terminal 6xHis (TRX)-TEV tag cleaved; 297 residues printed; hexamer/dodecamer, dodecamer active; assayed without Pdx2, with ammonium sulfate
T2 sequence (Q2G0Q1 1-295): T1 sequence (Q2G0Q1 1-295)

B1: Staphylococcus aureus Pdx2 (glutaminase subunit), wild type (enzyme, S. aureus, UniProt A5IQ73 1-186, looked up)
chain: T1 sequence (Q2G0Q0 1-186 partner)
B2: Staphylococcus aureus Pdx2 H165N (enzyme)
chain: T1 sequence (Q2G0Q0 1-186 partner) with H165N
notes: also called SaPdx2mut; SaPdx2_(H165N); source: E. coli Rosetta (DE3), purified (Ni-NTA, TEV cleavage, second Ni-NTA, SEC on Superdex 75)
B3: Staphylococcus aureus Pdx1 (PLP synthase subunit) (enzyme, S. aureus, UniProt A5IQ72 1-295, looked up)
chain: T1 sequence (Q2G0Q1 1-295)
notes: Pdx1 of S. aureus; Cloned into both pETM11/LIC (6xHis-TEV) and pETTRXA-1a/LIC (6xHis-TRX-TEV); Forms hexamers or dodecamers depending on the buffer; also called SaPdx1; source: E. coli Rosetta (DE3), purified (Ni-NTA, TEV cleavage, second Ni-NTA, SEC on Superdex 200); not shown: His6, N-terminal, cleaved

How the values were obtained:
[1] = target: T1, SaPLP synthase (SaPdx1 + SaPdx2); assay: PLP Schiff base with Tris, absorbance […] nm; assay type: biochemical; conditions: with R5P (1 mM in standard mix) and 20 mM glutamine, 40 uM Pdx1 and 40 uM Pdx2, 50 mM Tris-HCl pH 8, 150 mM NaCl, 37 °C; apparent; substrate inhibition at high G3P
[2] = target: T2, SaPdx1; assay: PLP Schiff base with Tris, absorbance […] nm; assay type: biochemical; conditions: with R5P (1 mM in standard mix) and 20 mM ammonium sulfate, 40 uM enzyme, 50 mM Tris-HCl pH 8, 150 mM NaCl, 37 °C; apparent; substrate inhibition at high G3P
[3] = target: B3; assay: cell-based or functional assay
[4] = target: B3; assay: SAXS; SEC-SAXS of the SaPdx1-SaPdx2 complexes (WT and mutant), 7 mg/ml, Superose 6 Increase 10/300; volume fractions of stoichiometries estimated with OLIGOMER from AF2-based models; conditions: both partners purified
[5] = target: the molecule itself; assay: SEC + other: dynamic light scattering; SaPdx1 purified in Tris-HCl buffer

## O=C[C@H](O)COP(=O)(O)O [glyceraldehyde 3-phosphate]
[1]
  Glyceraldehyde 3-phosphate / Ki: 1.9 ± 0.9 mM
[2]
  Glyceraldehyde 3-phosphate / Ki: 3.3 ± 0.9 mM

## B1
[3]
  increase in the apparent kcat/KM ratio of PLP synthesis (G3P varied) for the SaPLP complex compared to SaPdx1 + ammonia: 5.7 fold
  increase in the apparent kcat/KM ratio of PLP synthesis (R5P varied) for the SaPLP complex compared to SaPdx1 + ammonia: ~21 fold

## B2
[4]
  stoichiometry N: 1

## B3
[5]
  stoichiometry N: 6
